Test results as given in patent publication US10233474B2, “Materials and methods for producing 6-carbon monomers” (INVISTA North America S.á.r.l., priority 2014, dated 2019).
Values belong to the molecule of their own block, whether it stands above or below them.

What was measured:
Format in all cases: biochemical
[1] = ω-transaminase activity, reverse direction (6-aminohexanoate to adipate semialdehyde); conditions: cell free extract; 10 mM 6-aminohexanoate, 10 mM pyruvate, pH 7.5, 25° C., 24 h; RP-HPLC
Description: (§1) A nucleotide sequence encoding a His-tag was added to the nucleic acid sequences from Chromobacterium violaceum, Pseudomonas aeruginosa, Pseudomonas syringae, Rhodobacter sphaeroides, and Vibrio fluvialis encoding the ω-transaminases of SEQ ID NOs: 7, 8, 9, 10 and 12, respectively (see FIG. 6) such that N-terminal HIS tagged ω-transaminases could be produced. Each of the resulting modified genes was cloned into a pET21a expression vector under control of the T7 promoter and each expression vector was transformed into a BL21[DE3] E. coli host. The resulting recombinant E. coli strains were cultivated at 37° C. in a 250 mL shake flask culture containing 50 mL LB media and antibiotic selection pressure, with shaking at 230 rpm. Each culture was induced overnight at 16° C. using 1 mM IPTG.
(§2) The pellet from each induced shake flask culture was harvested via centrifugation. Each pellet was resuspended and lysed via sonication. The cell debris was separated from the supernatant via centrifugation and the cell free extract was used immediately in enzyme activity assays.
Enzyme activity assays in the reverse direction (i.e., 6-aminohexanoate to adipate semialdehyde) were performed in a buffer composed of a final concentration of 50 mM HEPES buffer (pH=7.5), 10 mM 6-aminohexanoate, 10 mM pyruvate and […] pyridoxyl 5′ phosphate. Each enzyme activity assay reaction was initiated by adding cell free extract of the ω-transaminase gene product or the empty vector control to the assay buffer containing the 6-aminohexanoate and incubated at 25° C. for 24 h, with shaking at 250 rpm. The formation of L-alanine from pyruvate was quantified via RP-HPLC.

[2] = ω-transaminase activity, forward direction (adipate semialdehyde to 6-aminohexanoate); conditions: cell free extract; 10 mM adipate semialdehyde, 10 mM L-alanine, pH 7.5, 25° C., 4 h; RP-HPLC
Description: as §1, §2
Enzyme activity in the forward direction (i.e., adipate semialdehyde to 6-aminohexanoate) was confirmed for the transaminases of SEQ ID NO 7, SEQ ID NO 8, SEQ ID NO 9, SEQ ID NO 10 and SEQ ID NO 12. Enzyme activity assays were performed in a buffer composed of a final concentration of 50 mM HEPES buffer (pH=7.5), 10 mM adipate semialdehyde, 10 mM L-alanine and 100 μM pyridoxyl 5′ phosphate. Each enzyme activity assay reaction was initiated by adding a cell free extract of the ω-transaminase gene product or the empty vector control to the assay buffer containing the adipate semialdehyde and incubated at 25° C. for 4 h, with shaking at 250 rpm. The formation of pyruvate was quantified via RP-HPLC.

[3] = carboxylate reductase activity (adipate semialdehyde to hexanedial); conditions: purified enzyme with sfp phosphopantetheine transferase; 2 mM adipate semialdehyde, pH 7.5, room temperature, 20 min
Description: The N-terminal His-tagged carboxylate reductase of SEQ ID NO 6 (see Example 2 and FIG. 6) was assayed using adipate semialdehyde as substrate. The enzyme activity assay was performed in triplicate in a buffer composed of a final concentration of 50 mM HEPES buffer (pH=7.5), 2 mM adipate semialdehyde, 10 mM MgCl2, 1 mM ATP and 1 mM NADPH. The enzyme activity assay reaction was initiated by adding purified carboxylate reductase and phosphopantetheine transferase or the empty vector control to the assay buffer containing the adipate semialdehyde and then incubated at room temperature for 20 min. The consumption of NADPH was monitored by absorbance at 340 nm.

ω-transaminase activity: conversion of pyruvate to L-alanine with 6-aminohexanoate as substrate, against the empty vector control [1]: accepted 6-aminohexanote as substrate
Molecule: SEQ ID NO 10: Rhodobacter sphaeroides ω-transaminase, N-terminal His-tagged
ω-transaminase activity: conversion of L-alanine to pyruvate with adipate semialdehyde as substrate, against the empty vector control [2]: accepted adipate semialdehyde as substrate

B1: SEQ ID NO 8: Pseudomonas aeruginosa ω-transaminase, N-terminal His-tagged (protein, listed as Pseudomonas aeruginosa)
chain: MNARLHATSPLGDADLVRADQAHYMHGYHVFDDHRVNGSLNIAAGDGAYIYDTAGNRYLDAVGGMWCTNIGLGREEMARTVAEQTRLLAYSNPFCDMANPRAIELCRKLAELAPGDLDHVFLTTGGSTAVDTAIRLMHYYQNCRGKRAKKHVITRINAYHGSTFLGMSLGGKSADRPAEFDFLDERIHHLACPYYYRAPEGLGEAEFLDGLVDEFERKILELGADRVGAFISEPVFGSGGVIVPPAGYHRRMWELCQRYDVLYISDEVVTSFGRLGHFFASQAVFGVQPDIILTAKGLTSGYQPLGACIFSRRIWEVIAEPDKGRCFSHGFTYSGHPVACAAALKNIEIIEREGLLAHADEVGRYFEERLQSLRDLPIVGDVRGMRFMACVEFVADKASKALFPESLNIGEWVHLRAQKRGLLVRPIVHLNVMSPPLILTREQVDTVVRVLRESIEETVEDLVRAGHR
modifications: N-terminal His tag
notes: Pseudomonas aeruginosa ω-transaminase, N-terminal His-tagged
ω-transaminase activity: conversion of L-alanine to pyruvate with adipate semialdehyde as substrate, against the empty vector control [2]: accepted adipate semialdehyde as substrate

ω-transaminase activity: conversion of pyruvate to L-alanine with 6-aminohexanoate as substrate, against the empty vector control [1]: accepted 6-aminohexanote as substrate
B2: SEQ ID NO 7: Chromobacterium violaceum ω-transaminase, N-terminal His-tagged (protein, listed as Chromobacterium violaceum)
chain: MQKQRTTSQWRELDAAHHLHPFTDTASLNQAGARVMTRGEGVYLWDSEGNKIIDGMAGLWCVNVGYGRKDFAEAARRQMEELPFYNTFFKTTHPAVVELSSLLAEVTPAGFDRVFYTNSGSESVDTMIRMVRRYWDVQGKPEKKTLIGRWNGYHGSTIGGASLGGMKYMHEQGDLPIPGMAHIEQPWWYKHGKDMTPDEFGVVAARWLEEKILEIGADKVAAFVGEPIQGAGGVIVPPATYWPEIERICRKYDVLLVADEVICGFGRTGEWFGHQHFGFQPDLFTAAKGLSSGYLPIGAVFVGKRVAEGLIAGGDFNHGFTYSGHPVCAAVAHANVAALRDEGIVQRVKDDIGPYMQKRWRETFSRFEHVDDVRGVGMVQAFTLVKNKAKRELFPDFGEIGTLCRDIFFRNNLIMRACGDHIVSAPPLVMTRAEVDEMLAVAERCLEEFEQTLKARGLA
modifications: N-terminal His tag
notes: Chromobacterium violaceum ω-transaminase, N-terminal His-tagged
ω-transaminase activity: conversion of L-alanine to pyruvate with adipate semialdehyde as substrate, against the empty vector control [2]: accepted adipate semialdehyde as substrate

ω-transaminase activity: conversion of pyruvate to L-alanine with 6-aminohexanoate as substrate, against the empty vector control [1]: accepted 6-aminohexanote as substrate
B3: SEQ ID NO 9: Pseudomonas syringae ω-transaminase, N-terminal His-tagged (protein, listed as Pseudomonas syringae)
chain: MSANNPQTLEWQALSSEHHLAPFSDYKQLKEKGPRIITRAEGVYLWDSEGNKILDGMSGLWCVAIGYGREELADAASKQMRELPYYNLFFQTAHPPVLELAKAISDIAPEGMNHVFFTGSGSEGNDTMLRMVRHYWALKGQPNKKTIISRVNGYHGSTVAGASLGGMTYMHEQGDLPIPGVVHIPQPYWFGEGGDMTPDEFGIWAAEQLEKKILELGVENVGAFIAEPIQGAGGVIVPPDSYWPKIKEILSRYDILFAADEVICGFGRTSEWFGSDFYGLRPDMMTIAKGLTSGYVPMGGLIVRDEIVAVLNEGGDFNHGFTYSGHPVAAAVALENIRILREEKIVERVRSETAPYLQKRLRELSDHPLVGEVRGVGLLGAIELVKDKTTRERYTDKGAGMICRTFCFDNGLIMRAVGDTMIIAPPLVISFAQIDELVEKARTCLDLTLAVLQG
modifications: N-terminal His tag
notes: Pseudomonas syringae ω-transaminase, N-terminal His-tagged
ω-transaminase activity: conversion of L-alanine to pyruvate with adipate semialdehyde as substrate, against the empty vector control [2]: accepted adipate semialdehyde as substrate

B4: SEQ ID NO: 6: Segniliparus rotundus carboxylate reductase, N-terminal His-tagged (protein, listed as Segniliparus rotundus)
chain: MTQSHTQGPQASAAHSRLARRAAELLATDPQAAATLPDPEVVRQATRPGLRLAERVDAILSGYADRPALGQRSFQTVKDPITGRSSVELLPTFDTITYRELRERATAIASDLAHHPQAPAKPGDFLASIGFISVDYVAIDIAGVFAGLTAVPLQTGATLATLTAITAETAPTLFAASIEHLPTAVDAVLATPSVRRLLVFDYRAGSDEDREAVEAAKRKIADAGSSVLVDVLDEVIARGKSAPKAPLPPATDAGDDSLSLLIYTSGSTGTPKGAMYPERNVAHFWGGVWAAAFDEDAAPPVPAINITFLPLSHVASRLSLMPTLARGGLMHFVAKSDLSTLFEDLKLARPTNLFLVPRVVEMLYQHYQSELDRRGVQDGTREAEAVKDDLRTGLLGGRILTAGFGSAPLSAELAGFIESLLQIHLVDGYGSTEAGPVWRDGYLVKPPVTDYKLIDVPELGYFSTDSPHPRGELAIKTQTILPGYYKRPETTAEVFDEDGFYLTGDVVAQIGPEQFAYVDRRKNVLKLSQGEFVTLAKLEAAYSSSPLVRQLFVYGSSERSYLLAVIVPTPDALKKFGVGEAAKAALGESLQKIARDEGLQSYEVPRDFIIETDPFTVENGLLSDARKSLRPKLKEHYGERLEAMYKELADGQANELRDIRRGVQQRPTLETVRRAAAAMLGASAAEIKPDAHFTDLGGDSLSALTFSNFLHDLFEVDVPVGVIVSAANTLGSVAEHIDAQLAGGRARPTFATVHGKGSTTIKASDLTLDKFIDEQTLEAAKHLPKPADPPRTVLLTGANGWLGRFLALEWLERLAPAGGKLITIVRGKDAAQAKARLDAAYESGDPKLAGHYQDLAATTLEVLAGDFSEPRLGLDEATWNRLADEVDFISHPGALVNHVLPYNQLFGPNVAGVAEIIKLAITTRIKPVTYLSTVAVAAGVEPSALDEDGDIRTVSAERSVDEGYANGYGNSKWGGEVLLREAHDRTGLPVRVFRSDMILAHQKYTGQVNATDQFTRLVQSLLATGLAPKSFYELDAQGNRQRAHYDGIPVDFTAESITTLGGDGLEGYRSYNVFNPHRDGVGLDEFVDWLIEAGHPITRIDDYDQWLSRFETSLRGLPESKRQASVLPLLHAFARPGPAVDGSPFRNTVFRTDVQKAKIGAEHDIPHLGKALVLKYADDIKQLGLL
modifications: N-terminal His tag
notes: Segniliparus rotundus carboxylate reductase, N-terminal His-tagged
carboxylate reductase activity: consumption of NADPH (absorbance at 340 nm) with adipate semialdehyde as substrate, against the empty vector control [3]: accepted adipate semialdehyde as substrate

ω-transaminase activity: conversion of pyruvate to L-alanine with 6-aminohexanoate as substrate, against the empty vector control [1]: accepted 6-aminohexanote as substrate
B5: SEQ ID NO 12: Vibrio fluvialis ω-transaminase, N-terminal His-tagged (protein, listed as Vibrio fluvialis)
chain: MNKPQSWEARAETYSLYGFTDMPSLHQRGTVVVTHGEGPYIVDVNGRRYLDANSGLWNMVAGFDHKGLIDAAKAQYERFPGYHAFFGRMSDQTVMLSEKLVEVSPFDSGRVFYTNSGSEANDTMVKMLWFLHAAEGKPQKRKILTRWNAYHGVTAVSASMTGKPYNSVFGLPLPGFVHLTCPHYWRYGEEGETEEQFVARLARELEETIQREGADTIAGFFAEPVMGAGGVIPPAKGYFQAILPILRKYDIPVISDEVICGFGRTGNTWGCVTYDFTPDAIISSKNLTAGFFPMGAVILGPELSKRLETAIEAIEEFPHGFTASGHPVGCAIALKAIDVVMNEGLAENVRRLAPRFEERLKHIAERPNIGEYRGIGFMWALEAVKDKASKTPFDGNLSVSERIANTCTDLGLICRPLGQSVVLCPPFILTEAQMDEMFDKLEKALDKVFAEVA
modifications: N-terminal His tag
notes: Vibrio fluvialis ω-transaminase, N-terminal His-tagged
ω-transaminase activity: conversion of L-alanine to pyruvate with adipate semialdehyde as substrate, against the empty vector control [2]: accepted adipate semialdehyde as substrate
